Experimental data from article PMC10848707.
“And” between values parts separate entries of the source, which are not always exact repeats. Equal values may be shown once.

Target: T1, recombinant influenza A virus nucleoprotein (A/WSN/1933) (influenza A virus (A/WSN/1933)), P15682
T1 chain: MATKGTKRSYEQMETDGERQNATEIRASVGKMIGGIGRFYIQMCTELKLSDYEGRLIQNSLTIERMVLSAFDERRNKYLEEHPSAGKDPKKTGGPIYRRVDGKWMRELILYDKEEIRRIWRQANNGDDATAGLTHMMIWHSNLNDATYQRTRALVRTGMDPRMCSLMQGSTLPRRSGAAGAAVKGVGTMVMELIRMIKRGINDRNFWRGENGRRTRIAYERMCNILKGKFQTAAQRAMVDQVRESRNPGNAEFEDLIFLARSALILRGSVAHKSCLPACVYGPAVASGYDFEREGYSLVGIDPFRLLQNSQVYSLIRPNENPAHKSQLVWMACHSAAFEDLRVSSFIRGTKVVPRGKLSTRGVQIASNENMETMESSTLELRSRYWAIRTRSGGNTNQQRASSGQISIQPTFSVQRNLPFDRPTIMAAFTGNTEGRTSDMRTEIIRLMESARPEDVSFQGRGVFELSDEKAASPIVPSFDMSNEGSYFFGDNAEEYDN
Assay: negative staining EM; freshly assembled RNP-like mixture (NP with 12-nt RNA) diluted to 0.05 mg/ml, 2% sodium silicotungstate pH 7.0
Settings: remark: other sources report otherwise

B1: recombinant influenza A virus nucleoprotein (A/WSN/1933), P15682 (natural protein)
chain: T1 chain
stoichiometry N: 3 and 4
